According to paper PMC3206816:
Values joined by “and” are separate entries in the source; they are usually repeats but may differ in a detail not shown here. Equal values may be shown once.

Key:
[1] = target: full-length HIV-1 Nef (RP14) (HIV-1); assay: cross-linking; purified Nef with glutaraldehyde (0.0%, 0.025%, 0.05%, 0.075%, 0.1%) on ice for 15 minutes; 12% SDS-PAGE, silver stain and western blot with anti-His antibody
[2] = target: full-length HIV-1 Nef (RP14) (HIV-1); assay: crystal structure; hanging drop, Nef at ~3.7 mg/ml; 0.1 M Tris pH 8.5, 0.2 M ammonium sulfate, 20% PEG 8000; space group P6(3)22, two chains in the asymmetric unit, tetramer with 4-fold symmetry formed through crystal symmetry; 3.5 Å

“full-length HIV-1 Nef (RP14) (natural protein)” was tested, and the stoichiometry N [1] was 2 and 4 and the stoichiometry N [2] was 4.
